Measurements reported in patent publication US10456446B2, “Use of human small leucine zipper protein in osteogenesis procedure” (Korea University Research and Business Foundation, priority 2013, dated 2019).

Columns and labels:
[1] = test system: primary MSCs and C3H10T1/2 cells; assay: Osteoblast differentiation in primary MSCs and C3H10T1/2 cells; format: cell-based; settings: differentiation medium for 8 days
Protocol: Primary human mesenchymal stem cells (MSCs), C3H10T1/2, 293T and MEF cells were cultured in a DMEM to which thermally inactivated 10% FBS and penicillin (100 U/mL)/streptomycin (100 μg/mL) were added. All cell types were cultured in a humidified incubator containing CO2 5% under a temperature condition of 37° C. In order to induce osteoblast differentiation, the medium was exchanged with a DMEM in which 50 μg/mL of ascorbic acid, 10 mM of β-glycerophosphate and 10% FBS were contained for 8 days. The differentiation medium was changed once every two days.
C3H10T1/2 and 293T cells were plated in a 12-well culture dish at a density of 2×10^5 cells/well and incubated for 24 hours. Then, according to instructions of the manufacturer, the cells were transfected with a 0.2 μg of reporter genes and 0.1 to 0.5 μg of a laboratory plasmid using Lipofectamine 2000 or Genefectine. After 24 hours, the cells were cultured in a serum-free DMEM with or without 10 nM of rosiglitazone. siRNAs were prepared using sLZIP and HDAC target sequences (Table 1). […]
Therefore, in order to characterize a potential role of sLZIP in the transcriptional activity of Runx2 by inhibiting the transcriptional activity of PPARγ2, the transcriptional activity of Runx2 was examined. […] A promoter activity was measured by luciferase analysis. […]

NCoR1 = molecular target: T1, NCoR1 (Homo sapiens, UniProt O75376); assay: Immunoprecipitation of sLZIP with anti-NCoR1 antibodies in 293T cells; format: binding; settings: 10 nM RZD for 24 hours
T1 construct: endogenous in cells; host or cells: 293T
Protocol: 293T cells were obtained and washed with cold PBS. The cells were re-suspended in an IP lysis buffer [25 mM of Tris-HCl (pH 7.4), 150 mM of NaCl, 1 mM of EDTA, 1% NP-40 and 5% glycerol, and a protease inhibitor]. A suspension was centrifuged at 16,000×g for 20 minutes at 4° C. Supernatants were collected and incubated with 0.5 μg of appropriate antibodies and 25 μl of protein A/G-agarose or a GST Sepharose 4B bead for 24 hours at 4° C. A protein complex was centrifuged at 1,000×g with a cold IP lysis buffer for 1 minute and washed five times. The final pellet was re-suspended in 50 μl of an SDS-sample buffer containing 5% β-mercaptoethanol and heated for 10 minutes at 100° C. A protein sample was isolated in SDS-PAGE (8 to 10%) and transferred to nitrocellulose membranes. Co-precipitated proteins were detected according to western blotting using specific antibodies.
For this purpose, 293T cells were transfected with GST-PPARγ2 and Flag-sLZIP and were treated or not treated with 10 nM of RZD for 24 hours. […] A protein complex was analyzed in SDS-PAGE, and immunoblotted with anti-GST and anti-Flag antibodies. […] The cell lysates were GST pull-down analyzed (FIG. 5C). […] The cell lysates were GST pull-down analyzed (FIG. 5D). […] A protein complex was analyzed in SDS-PAGE, and then immunoblotted with anti-NCoR1 and anti-Flag antibodies (FIG. 5E). […]

T1 sequence (O75376 whole entry): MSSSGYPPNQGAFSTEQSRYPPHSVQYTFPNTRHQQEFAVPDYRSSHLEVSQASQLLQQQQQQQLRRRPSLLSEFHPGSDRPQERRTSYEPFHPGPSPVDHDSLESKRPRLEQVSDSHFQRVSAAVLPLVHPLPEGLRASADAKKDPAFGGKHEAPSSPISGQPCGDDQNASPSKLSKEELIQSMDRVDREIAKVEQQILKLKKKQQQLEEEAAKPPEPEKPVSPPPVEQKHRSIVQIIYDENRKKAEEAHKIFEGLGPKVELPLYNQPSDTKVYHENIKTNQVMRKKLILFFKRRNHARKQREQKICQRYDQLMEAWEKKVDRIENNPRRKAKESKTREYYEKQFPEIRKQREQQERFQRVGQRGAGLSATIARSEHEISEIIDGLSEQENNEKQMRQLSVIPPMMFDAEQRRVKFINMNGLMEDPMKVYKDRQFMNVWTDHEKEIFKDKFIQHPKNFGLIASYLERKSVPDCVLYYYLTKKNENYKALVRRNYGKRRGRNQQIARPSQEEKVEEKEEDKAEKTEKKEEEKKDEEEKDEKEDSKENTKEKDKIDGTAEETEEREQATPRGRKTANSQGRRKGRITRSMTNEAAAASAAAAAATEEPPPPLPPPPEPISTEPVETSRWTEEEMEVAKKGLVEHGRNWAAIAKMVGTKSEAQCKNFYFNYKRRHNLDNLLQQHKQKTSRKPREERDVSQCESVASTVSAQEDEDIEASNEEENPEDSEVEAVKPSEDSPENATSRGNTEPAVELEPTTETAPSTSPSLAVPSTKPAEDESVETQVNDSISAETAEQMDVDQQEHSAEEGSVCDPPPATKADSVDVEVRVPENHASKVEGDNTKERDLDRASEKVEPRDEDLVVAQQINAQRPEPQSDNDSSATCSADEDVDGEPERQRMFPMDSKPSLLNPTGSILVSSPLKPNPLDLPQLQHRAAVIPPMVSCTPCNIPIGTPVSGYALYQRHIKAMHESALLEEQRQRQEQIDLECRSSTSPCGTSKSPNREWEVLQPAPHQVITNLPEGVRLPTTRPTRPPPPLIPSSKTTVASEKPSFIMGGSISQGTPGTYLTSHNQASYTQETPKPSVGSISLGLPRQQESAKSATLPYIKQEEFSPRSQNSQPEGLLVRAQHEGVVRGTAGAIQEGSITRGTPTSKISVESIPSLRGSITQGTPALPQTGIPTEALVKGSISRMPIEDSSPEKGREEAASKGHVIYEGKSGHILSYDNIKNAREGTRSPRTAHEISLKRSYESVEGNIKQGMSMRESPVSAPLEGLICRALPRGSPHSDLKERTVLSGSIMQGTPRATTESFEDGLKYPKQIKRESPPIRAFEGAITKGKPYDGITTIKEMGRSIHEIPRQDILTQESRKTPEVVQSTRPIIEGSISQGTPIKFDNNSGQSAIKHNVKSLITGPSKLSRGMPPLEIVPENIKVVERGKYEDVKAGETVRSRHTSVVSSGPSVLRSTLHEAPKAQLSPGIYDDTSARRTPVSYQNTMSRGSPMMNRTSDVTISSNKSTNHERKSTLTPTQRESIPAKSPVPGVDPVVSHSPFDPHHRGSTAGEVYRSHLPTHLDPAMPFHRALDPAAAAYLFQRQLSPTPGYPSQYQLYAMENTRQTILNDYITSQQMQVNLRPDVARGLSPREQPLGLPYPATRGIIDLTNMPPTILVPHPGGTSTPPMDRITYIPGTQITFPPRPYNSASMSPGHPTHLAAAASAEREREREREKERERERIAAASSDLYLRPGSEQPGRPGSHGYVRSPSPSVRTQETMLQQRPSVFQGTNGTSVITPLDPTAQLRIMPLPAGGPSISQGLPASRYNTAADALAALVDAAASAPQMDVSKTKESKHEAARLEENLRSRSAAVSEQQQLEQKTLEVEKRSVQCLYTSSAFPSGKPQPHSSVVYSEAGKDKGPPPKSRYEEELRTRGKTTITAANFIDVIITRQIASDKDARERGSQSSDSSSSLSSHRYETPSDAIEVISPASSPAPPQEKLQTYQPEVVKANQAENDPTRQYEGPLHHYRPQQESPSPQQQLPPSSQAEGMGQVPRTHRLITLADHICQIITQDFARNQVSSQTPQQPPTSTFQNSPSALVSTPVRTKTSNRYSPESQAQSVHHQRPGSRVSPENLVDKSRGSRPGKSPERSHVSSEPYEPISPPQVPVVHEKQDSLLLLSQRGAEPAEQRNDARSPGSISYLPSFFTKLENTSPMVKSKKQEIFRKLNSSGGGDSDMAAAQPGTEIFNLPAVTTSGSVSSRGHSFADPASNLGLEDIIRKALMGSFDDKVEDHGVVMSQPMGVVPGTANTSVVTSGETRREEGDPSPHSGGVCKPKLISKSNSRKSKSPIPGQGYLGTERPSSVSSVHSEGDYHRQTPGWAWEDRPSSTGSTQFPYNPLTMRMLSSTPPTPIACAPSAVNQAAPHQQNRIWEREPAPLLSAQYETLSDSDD

interaction with NCoR1 (NCoR1): slightly dissociated from sLZIP
B1: sLZIP: human small leucine-zipper protein, isoform of LZIP, 354 amino acids, no transmembrane domain, GenBank FJ263669, SEQ ID NO: 1 (protein, listed as Homo sapiens)
chain: MELELDAGDQDLLAFLLEESGDLGTAPDEAVRAPLDWALPLSEVPSDWEVDDLLCSLLSPPASLNILSSSNPCLVHHDHTYSLPRETVSMDLESESCRKEGTQMTPQHMEELAEQEIARLVLTDEEKSLLEKEGLILPETLPLTKTEEQILKRVRRKIRNKRSAQESRRKKKVYVGGLESRVLKYTAQNMELQNKVQLLEEQNLSLLDQLRKLQAMVIEISNKTSSSSMYSSDTRGSLPAEHGVLSRQLRALPSEDPYQLELPALQSEVPKDSTHQWLDGSDCVLQAPGNTSCLLHYMPQAPSAEPPLEWPFPDLFSEPLCRGPILPLQANLTRKGGWLPTGSPSVILQDRYSG
osteoblast differentiation [1]: increased osteoblast differentiation
